Reference: PMC3045599

Target: NrdA-a/NrdA-b heterodimer of phage Aeh1, wild type (phage Aeh1)
Experiment: GEMMA

“NrdA-a/NrdA-b heterodimer of phage Aeh1, wild type (complex)” was tested, and the stoichiometry N was 2.
